Measured values: US9592268B2, “Endothelium protective materials and methods of use” (CORNELL UNIVERSITY, priority 2011, dated 2017)

B1: r-apoM-bound S1P: S1P complexed with equi-molar recombinant apoM (protein, UniProt O95445 1-188, looked up)
Apolipoprotein M: MFHQIWAALLYFYGIILNSIYQCPEHSQLTTLGVDGKEFPEVHLGQWYFIAGAAPTKEELATFDPVDNIVFNMAAGSAPMQLHLRATIRMKDGLCVPRKWIYHLTEGSTDLRTEGRPDMKTELFSSSCPGGIMLNETGQGYQRFLLYNRSPHPPEKCVEEFKSLTSCLDSKAFLLTPRNQEACELSNN
modifications: complexed with S1P
B2: r-apoM without S1P: recombinant apoM not complexed with S1P (protein, UniProt O95445 1-188, looked up)
Apolipoprotein M: B1 Apolipoprotein M

How the values were obtained:
S1P1 receptor = molecular target: T1, S1P1 receptor (Homo sapiens, UniProt P21453); assay: S1P1 internalization in HEK293 cells stably expressing S1P1-GFP; format: cell-based; details: stimulated 1 h; HDL 100 μg/ml; S1P complexes 100 nM
T1 construct: expressed in transfected cells
T1 sequence (P21453 whole entry): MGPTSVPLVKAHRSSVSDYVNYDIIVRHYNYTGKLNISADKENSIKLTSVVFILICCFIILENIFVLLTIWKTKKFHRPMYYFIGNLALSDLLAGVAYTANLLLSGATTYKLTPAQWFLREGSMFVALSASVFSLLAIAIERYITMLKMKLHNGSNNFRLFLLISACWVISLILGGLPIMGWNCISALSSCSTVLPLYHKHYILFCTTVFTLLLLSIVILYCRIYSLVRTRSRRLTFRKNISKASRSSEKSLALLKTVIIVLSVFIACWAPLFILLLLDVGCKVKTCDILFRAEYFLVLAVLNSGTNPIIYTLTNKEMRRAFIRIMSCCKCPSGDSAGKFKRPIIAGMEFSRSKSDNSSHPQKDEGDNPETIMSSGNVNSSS
Experimental: (§1) FIG. 4. ApoM-bound S1P activates S1P1-mediated intracellular signaling pathways and affects migration of HUVEC. (A) Confocal microscopy of HEK293 cells stably expressing S1P1-GFP. Cells were serum starved, stimulated for 1 h with indicated ligands, fixed and imaged. ApoM^+HDL (equivalent to ˜100 nM S1P as determined by LC/MS/MS) or ApoM^−HDL was used at 100 μg/ml. Fatty acid free BSA and r-apoM were complexed with S1P and used at the final concentration of 100 nM (equimolar for both protein and lipid). Scale bar, 20 μm. […] Activation of p44/42, and Akt was examined by western blot analysis using phospho-specific antibodies. (C) HUVEC were serum starved and pre-treated with 1 μM VPC44116 for 30 min where indicated and subjected to migration assay with 10 μg/ml apoM^+HDL (10 nM S1P) or 10 μg/ml apoM^−HDL or 10 nM albumin-S1P. Data are mean±SD, n=3. * p<0.01. (D) Microscopy of HUVEC that were serum starved and stimulated with 100 μg/ml apoM^+HDL, apoM^−HDL, 100 nM albumin-S1P, r-apoM-S1P or 100 nM S1P-free r-apoM for 1 h. […] Scale bar, 20 μm. HUVEC were serum starved and stimulated for 5 min with 30 nM albumin-S1P, r-apoM-S1P, 10 μg/mL ApoM+ HDL, or 30 nM S1P-free r-apoM (E) or with increasing concentrations of albumin or r-apoM-S1P (F). […]
General Methods. […] Numerical differences were analyzed with two-tailed Student's t test. […]

HUVEC [1] = assay: HUVEC migration (chemotaxis chamber) assay; format: cell-based, human
Experimental: as §1, with “μm.” for “μm. HUVEC were serum starved and stimulated for 5 min with 30 nM albumin-S1P, r-apoM-S1P, 10 μg/mL ApoM+ HDL, or 30 nM S1P-free r-apoM (E) or with increasing concentrations of albumin or r-apoM-S1P (F).”
General Methods. […] Numerical differences were analyzed with two-tailed Student's t test.
Migration Assays. […] The filter was scanned, and the color density of each well was quantified using ImageJ software. […]

HUVEC [2] = assay: adherens junction assembly assay (VE-cadherin immunostaining) in HUVEC; format: cell-based, human; details: HUVEC stimulated 1 h; HDL 100 μg/ml; S1P complexes or r-apoM 100 nM
Experimental: as §1, with “(F). Activation of p44/42 and Akt was examined by Western blot analysis using phospho-specific antibodies.” for “(F).”

VCAM-1 = assay: TNFα-induced cell surface VCAM-1 expression in HUVEC by flow cytometry; format: cell-based, human; details: for suppression of cytokine-induced VCAM-1 expression: human endothelial cells (FIG. 9)
Experimental: FIG. 9. ApoM/S1P inhibition of endothelial cell VCAM-1 expression. Human umbilical vein endothelial cells (HUVEC) were treated with TNFα for 3 hr. Some cells were co-treated with recombinant (r)ApoM (100 nM) or rApoM/S1P complex (100 nM) or albumin/S1P complex (100 nM) for the same amount of time. The cells were then analyzed for the cell surface expression of Vascular cell adhesion molecule (VCAM)-1 by flow cytometry. Note that ApoM/S1P complex inhibited (˜40%) TNFα-induced VCAM-1 expression.
Inflammation of vascular endothelial cells is a critical initiating event in atherosclerosis, which leads to heart attacks and strokes. Endothelial cell inflammation is induced by cytokines such as TNFα and IL-1β. When endothelial cells are exposed to such cytokines, an inflammatory program of gene expression is induced, resulting in the formation of adhesion molecules such as VCAM-1, which in turn is needed for the recruitment of monocytes into the blood vessel wall. […] Thus, ApoM/S1P complexes can be used to suppress vascular inflammation as a potential treatment for atherosclerosis.

| Molecule | internalization of GFP-S1P1 receptor (S1P1 receptor) | chemoattractant activity compared with albumin-bound S1P (HUVEC [1]; increasing concentrations (FIG. 4G)) | chemotaxis of HUVEC toward chemoattractant (HUVEC [1]; serum-starved HUVEC, 4 h at 37° C.) | adherens junction and F-actin formation (HUVEC [2]) | inhibition of TNFα-induced VCAM-1 expression (VCAM-1; 100 nM, co-treated with TNFα for 3 hr) [%] | suppression of cytokine-induced VCAM-1 expression (VCAM-1) |
| --- | --- | --- | --- | --- | --- | --- |
| B1 | induced robust internalization | slightly higher activity | worked as chemoattractants in a concentration-dependent manner | well-spread, contained F-actin and formed adherens junctions | ~40 | significant suppression |
| B2 | Neither apoM^−HDL nor r-apoM without S1P caused receptor internalization |  |  | not efficiently induced |  | not seen |
